B1: TBX5 (parent)
chain: FHEVGTEMIITKAGRRMFPSYKVK

Variants of: B1
Assay: protein stability index of a GFP-peptide fusion (GPS, HEK-293T) (PSI 1-6); higher = more stable
Details: c terminus: a fixed tail appended
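Note: lentivirally expressed fusions sorted by FACS into six bins by GFP to DsRed ratio, PSI derived from sequencing read proportions per bin multiplied by bin number.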

Variant	protein stability index
HHEVGTEMIITKAGRRMFPSYKVK [F1H]	2.41
PHEVGTEMIITKAGRRMFPSYKVK [F1P]	3.5
MHEVGTEMIITKAGRRMFPSYKVK [F1M]	3.02
NHEVGTEMIITKAGRRMFPSYKVK [F1N]	3.4
WHEVGTEMIITKAGRRMFPSYKVK [F1W]	2.46
SHEVGTEMIITKAGRRMFPSYKVK [F1S]	3.09
QHEVGTEMIITKAGRRMFPSYKVK [F1Q]	3.25
KHEVGTEMIITKAGRRMFPSYKVK [F1K]	3.54
THEVGTEMIITKAGRRMFPSYKVK [F1T]	3.13
YHEVGTEMIITKAGRRMFPSYKVK [F1Y]	2.55
VHEVGTEMIITKAGRRMFPSYKVK [F1V]	2.58
LHEVGTEMIITKAGRRMFPSYKVK [F1L]	2.3
GHEVGTEMIITKAGRRMFPSYKVK [F1G]	3.65
EHEVGTEMIITKAGRRMFPSYKVK [F1E]	3.68
RHEVGTEMIITKAGRRMFPSYKVK [F1R]	2.58
IHEVGTEMIITKAGRRMFPSYKVK [F1I]	2.44
FHEVGTEMKITKAGRRMFPSYKVK [I9K]	2.48
FHEVGTEMPITKAGRRMFPSYKVK [I9P]	2.75
FHEVGTEMFITKAGRRMFPSYKVK [I9F]	2.52
FHEVGTEMYITKAGRRMFPSYKVK [I9Y]	1.8
FHEVGTEMGITKAGRRMFPSYKVK [I9G]	2
FHEVGTEMDITKAGRRMFPSYKVK [I9D]	2.38
FHEVGTEMNITKAGRRMFPSYKVK [I9N]	2.46
FHEVGTEMSITKAGRRMFPSYKVK [I9S]	2.29

Variant	protein stability index
FHEVGTEMCITKAGRRMFPSYKVK [I9C]	1.5
FHEVGTEMTITKAGRRMFPSYKVK [I9T]	2.84
FHEVGTEMVITKAGRRMFPSYKVK [I9V]	3.05
FHEVGTEMEITKAGRRMFPSYKVK [I9E]	3.06
FHEVGTEMMITKAGRRMFPSYKVK [I9M]	2.19
FHEVGTEMQITKAGRRMFPSYKVK [I9Q]	2.5
FHEVGTEMLITKAGRRMFPSYKVK [I9L]	1.79
FHEVGTEMAITKAGRRMFPSYKVK [I9A]	2.38
FHEVGTEMRITKAGRRMFPSYKVK [I9R]	2.68
FHEVGREMIITKAGRRMFPSYKVK [T6R]	1.62
FHEVGEEMIITKAGRRMFPSYKVK [T6E]	3.65
FHEVGQEMIITKAGRRMFPSYKVK [T6Q]	2.2
FHEVGHEMIITKAGRRMFPSYKVK [T6H]	2.01
FHEVGWEMIITKAGRRMFPSYKVK [T6W]	2.13
FHEVGNEMIITKAGRRMFPSYKVK [T6N]	1.68
FHEVGKEMIITKAGRRMFPSYKVK [T6K]	2.23
FHEVGDEMIITKAGRRMFPSYKVK [T6D]	2.25
FHEVGVEMIITKAGRRMFPSYKVK [T6V]	2.07
FHEVGSEMIITKAGRRMFPSYKVK [T6S]	2.21
FHEVGCEMIITKAGRRMFPSYKVK [T6C]	1.52
FHEVGGEMIITKAGRRMFPSYKVK [T6G]	2.9
FHEVGYEMIITKAGRRMFPSYKVK [T6Y]	1.56
FHEVGLEMIITKAGRRMFPSYKVK [T6L]	3.1
FHEVGFEMIITKAGRRMFPSYKVK [T6F]	2.76

Variant	protein stability index
FHEVGAEMIITKAGRRMFPSYKVK [T6A]	1.93
FHEVGPEMIITKAGRRMFPSYKVK [T6P]	1.3
FHEVGMEMIITKAGRRMFPSYKVK [T6M]	1.37
FHVVGTEMIITKAGRRMFPSYKVK [E3V]	2.58
FHAVGTEMIITKAGRRMFPSYKVK [E3A]	1.87
FHSVGTEMIITKAGRRMFPSYKVK [E3S]	2.8
FHFVGTEMIITKAGRRMFPSYKVK [E3F]	2.39
FHQVGTEMIITKAGRRMFPSYKVK [E3Q]	1.8
FHNVGTEMIITKAGRRMFPSYKVK [E3N]	1.03
FHRVGTEMIITKAGRRMFPSYKVK [E3R]	2.58
FHPVGTEMIITKAGRRMFPSYKVK [E3P]	2.42
FHCVGTEMIITKAGRRMFPSYKVK [E3C]	2.54
FHKVGTEMIITKAGRRMFPSYKVK [E3K]	1.45
FHTVGTEMIITKAGRRMFPSYKVK [E3T]	1.03
FHHVGTEMIITKAGRRMFPSYKVK [E3H]	1.06
FHDVGTEMIITKAGRRMFPSYKVK [E3D]	1.26
FHIVGTEMIITKAGRRMFPSYKVK [E3I]	4.17
FHEVGTEMIITDAGRRMFPSYKVK [K12D]	2.57
FHEVGTEMIITCAGRRMFPSYKVK [K12C]	1.31
FHEVGTEMIITAAGRRMFPSYKVK [K12A]	2.52
FHEVGTEKIITKAGRRMFPSYKVK [M8K]	2.68
FHEVGTESIITKAGRRMFPSYKVK [M8S]	2.34
FHEVGTEDIITKAGRRMFPSYKVK [M8D]	3.29
FHEVGTEIIITKAGRRMFPSYKVK [M8I]	1.33

Variant	protein stability index
FHEVGTEFIITKAGRRMFPSYKVK [M8F]	1.59
FHEVGTEVIITKAGRRMFPSYKVK [M8V]	1.43
FHEVGTEPIITKAGRRMFPSYKVK [M8P]	2.08
FHEVGTERIITKAGRRMFPSYKVK [M8R]	1.79
FHEVGTEYIITKAGRRMFPSYKVK [M8Y]	1.87
FHEVGTEHIITKAGRRMFPSYKVK [M8H]	2.33
FHEVGTEGIITKAGRRMFPSYKVK [M8G]	1.93
FHEVGTEAIITKAGRRMFPSYKVK [M8A]	2.27
FHEVGTECIITKAGRRMFPSYKVK [M8C]	2.09
FHEVGTEQIITKAGRRMFPSYKVK [M8Q]	2.06
FHEVGTENIITKAGRRMFPSYKVK [M8N]	2.38
FHEVGTEEIITKAGRRMFPSYKVK [M8E]	3.03
FHEVGTETIITKAGRRMFPSYKVK [M8T]	2.2
FHEVGTELIITKAGRRMFPSYKVK [M8L]	1.66
FHEVGTEWIITKAGRRMFPSYKVK [M8W]	2.07
FHEDGTEMIITKAGRRMFPSYKVK [V4D]	2.48
FHEGGTEMIITKAGRRMFPSYKVK [V4G]	2.32
FHERGTEMIITKAGRRMFPSYKVK [V4R]	1.42
FHESGTEMIITKAGRRMFPSYKVK [V4S]	1.95
FHENGTEMIITKAGRRMFPSYKVK [V4N]	2.05
FHEKGTEMIITKAGRRMFPSYKVK [V4K]	1.98
FHEPGTEMIITKAGRRMFPSYKVK [V4P]	1.86
FHEQGTEMIITKAGRRMFPSYKVK [V4Q]	1.96
FHEEGTEMIITKAGRRMFPSYKVK [V4E]	2.23

Variant	protein stability index
FHECGTEMIITKAGRRMFPSYKVK [V4C]	2
FHEYGTEMIITKAGRRMFPSYKVK [V4Y]	2.46
FHETGTEMIITKAGRRMFPSYKVK [V4T]	2.34
FHEHGTEMIITKAGRRMFPSYKVK [V4H]	1.85
FHELGTEMIITKAGRRMFPSYKVK [V4L]	2.09
FHEMGTEMIITKAGRRMFPSYKVK [V4M]	1.6
FHEAGTEMIITKAGRRMFPSYKVK [V4A]	1.97
FHEFGTEMIITKAGRRMFPSYKVK [V4F]	2.65
FHEIGTEMIITKAGRRMFPSYKVK [V4I]	2.41
FWEVGTEMIITKAGRRMFPSYKVK [H2W]	1.57
FAEVGTEMIITKAGRRMFPSYKVK [H2A]	2.04
FIEVGTEMIITKAGRRMFPSYKVK [H2I]	1.69
FFEVGTEMIITKAGRRMFPSYKVK [H2F]	2.39
FSEVGTEMIITKAGRRMFPSYKVK [H2S]	2.53
FGEVGTEMIITKAGRRMFPSYKVK [H2G]	2.48
FTEVGTEMIITKAGRRMFPSYKVK [H2T]	1.85
FKEVGTEMIITKAGRRMFPSYKVK [H2K]	2.24
FNEVGTEMIITKAGRRMFPSYKVK [H2N]	2.93
FVEVGTEMIITKAGRRMFPSYKVK [H2V]	2.38
FEEVGTEMIITKAGRRMFPSYKVK [H2E]	3.09
FYEVGTEMIITKAGRRMFPSYKVK [H2Y]	2.41
FQEVGTEMIITKAGRRMFPSYKVK [H2Q]	1.84
FPEVGTEMIITKAGRRMFPSYKVK [H2P]	2.27
FDEVGTEMIITKAGRRMFPSYKVK [H2D]	2.67

Variant	protein stability index
FCEVGTEMIITKAGRRMFPSYKVK [H2C]	1.72
FMEVGTEMIITKAGRRMFPSYKVK [H2M]	2.03
FREVGTEMIITKAGRRMFPSYKVK [H2R]	2.53
FLEVGTEMIITKAGRRMFPSYKVK [H2L]	2.07
FHEVGTEMIPTKAGRRMFPSYKVK [I10P]	2.44
FHEVGTEMIWTKAGRRMFPSYKVK [I10W]	1.76
FHEVGTEMIETKAGRRMFPSYKVK [I10E]	2.66
FHEVGTEMIVTKAGRRMFPSYKVK [I10V]	2.14
FHEVGTEMITTKAGRRMFPSYKVK [I10T]	1.91
FHEVGTEMIKTKAGRRMFPSYKVK [I10K]	2.84
FHEVGTEMIQTKAGRRMFPSYKVK [I10Q]	2.45
FHEVGTEMINTKAGRRMFPSYKVK [I10N]	2.03
FHEVGTEMILTKAGRRMFPSYKVK [I10L]	2.21
FHEVGTEMIATKAGRRMFPSYKVK [I10A]	1.68
FHEVGTEMIFTKAGRRMFPSYKVK [I10F]	3.28
FHEVGTEMIHTKAGRRMFPSYKVK [I10H]	2.25
FHEVGTEMICTKAGRRMFPSYKVK [I10C]	2.41
FHEVGTEMIDTKAGRRMFPSYKVK [I10D]	3.5
FHEVGTEMIRTKAGRRMFPSYKVK [I10R]	2.21
FHEVGTEMISTKAGRRMFPSYKVK [I10S]	3.26
FHEVGTEMIYTKAGRRMFPSYKVK [I10Y]	1.48
FHEVGTEMIMTKAGRRMFPSYKVK [I10M]	1.63
FHEVGTAMIITKAGRRMFPSYKVK [E7A]	2.82
FHEVGTGMIITKAGRRMFPSYKVK [E7G]	2.98

Variant	protein stability index
FHEVGTHMIITKAGRRMFPSYKVK [E7H]	1.55
FHEVGTVMIITKAGRRMFPSYKVK [E7V]	1.84
FHEVGTPMIITKAGRRMFPSYKVK [E7P]	1.71
FHEVGTTMIITKAGRRMFPSYKVK [E7T]	1.87
FHEVGTSMIITKAGRRMFPSYKVK [E7S]	1.66
FHEVGTCMIITKAGRRMFPSYKVK [E7C]	2.07
FHEVGTDMIITKAGRRMFPSYKVK [E7D]	1.81
FHEVGTMMIITKAGRRMFPSYKVK [E7M]	1.49
FHEVGTNMIITKAGRRMFPSYKVK [E7N]	1.88
FHEVGTKMIITKAGRRMFPSYKVK [E7K]	1.92
FHEVGTWMIITKAGRRMFPSYKVK [E7W]	2.06
FHEVGTLMIITKAGRRMFPSYKVK [E7L]	1.93
FHEVGTQMIITKAGRRMFPSYKVK [E7Q]	1.81
FHEVYTEMIITKAGRRMFPSYKVK [G5Y]	1.49
FHEVQTEMIITKAGRRMFPSYKVK [G5Q]	2.13
FHEVMTEMIITKAGRRMFPSYKVK [G5M]	1.69
FHEVSTEMIITKAGRRMFPSYKVK [G5S]	2.76
FHEVKTEMIITKAGRRMFPSYKVK [G5K]	1.88
FHEVITEMIITKAGRRMFPSYKVK [G5I]	3.47
FHEVDTEMIITKAGRRMFPSYKVK [G5D]	2.58
FHEVNTEMIITKAGRRMFPSYKVK [G5N]	1.5
FHEVVTEMIITKAGRRMFPSYKVK [G5V]	1.23
FHEVHTEMIITKAGRRMFPSYKVK [G5H]	1.92
FHEVCTEMIITKAGRRMFPSYKVK [G5C]	2.02

Variant	protein stability index
FHEVTTEMIITKAGRRMFPSYKVK [G5T]	1.92
FHEVLTEMIITKAGRRMFPSYKVK [G5L]	1.92
FHEVATEMIITKAGRRMFPSYKVK [G5A]	2.44
FHEVPTEMIITKAGRRMFPSYKVK [G5P]	2.05
FHEVGTEMIIQKAGRRMFPSYKVK [T11Q]	1.88
FHEVGTEMIIIKAGRRMFPSYKVK [T11I]	1.19
FHEVGTEMIIAKAGRRMFPSYKVK [T11A]	3.29
FHEVGTEMIILKAGRRMFPSYKVK [T11L]	2.14
FHEVGTEMIIFKAGRRMFPSYKVK [T11F]	1.71
FHEVGTEMIIPKAGRRMFPSYKVK [T11P]	2.28
FHEVGTEMIIRKAGRRMFPSYKVK [T11R]	2.47
FHEVGTEMIINKAGRRMFPSYKVK [T11N]	2.46
FHEVGTEMIIKKAGRRMFPSYKVK [T11K]	2.59
FHEVGTEMIIYKAGRRMFPSYKVK [T11Y]	1.02
FHEVGTEMIIMKAGRRMFPSYKVK [T11M]	1.53
FHEVGTEMIICKAGRRMFPSYKVK [T11C]	2.44
FHEVGTEMIIEKAGRRMFPSYKVK [T11E]	2.36
FHEVGTEMIIDKAGRRMFPSYKVK [T11D]	2.13
FHEVGTEMIIVKAGRRMFPSYKVK [T11V]	1.76
FHEVGTEMIISKAGRRMFPSYKVK [T11S]	3.49
